Patent US20140294837A1 (SAMSUNG ELECTRONICS, published 2014)
Substitutions are numbered along the chain they refer to.

B1: AbF46, a mouse antibody to c-Met (antibody, V domains shown)
VH: EVKLVESGGGLVQPGGSLRLSCATSGFTFTDYYMSWVRQPPGKALEWLGFIRNKANGYTTEYSASVKGRFTISRDNSQSILYLQMDTLRAEDSATYYCARDNWFAYWGQGTLVTVSA
VL: DILMTQSPSSLTVSAGEKVTMSCKSSQSLLASGNQNNYLAWHQQKPGRSPKMLIIWASTRVSGVPDRFIGSGSGTDFTLTINSVQAEDLAVYYCQQSYSAPLTFGAGTKLELK
notes: also called monoclonal antibody of hybridoma KCLRF-BP-00220
B2: MV10A (bispecific antibody)
heavy: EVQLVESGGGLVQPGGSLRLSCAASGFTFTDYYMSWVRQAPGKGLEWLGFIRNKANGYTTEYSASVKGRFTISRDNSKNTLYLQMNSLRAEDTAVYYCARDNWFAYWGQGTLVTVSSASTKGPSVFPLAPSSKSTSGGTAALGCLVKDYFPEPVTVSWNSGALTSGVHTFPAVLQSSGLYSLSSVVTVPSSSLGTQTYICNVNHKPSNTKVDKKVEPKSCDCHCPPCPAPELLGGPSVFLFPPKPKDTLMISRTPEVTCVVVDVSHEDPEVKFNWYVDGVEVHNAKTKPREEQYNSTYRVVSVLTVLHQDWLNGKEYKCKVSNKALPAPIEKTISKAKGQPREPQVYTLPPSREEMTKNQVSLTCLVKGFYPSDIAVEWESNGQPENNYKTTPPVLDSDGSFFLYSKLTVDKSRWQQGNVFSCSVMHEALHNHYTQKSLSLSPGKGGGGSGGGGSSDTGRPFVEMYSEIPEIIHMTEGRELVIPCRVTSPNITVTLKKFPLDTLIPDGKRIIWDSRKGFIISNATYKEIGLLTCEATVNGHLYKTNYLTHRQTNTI
light: DIQMTQSPSSLSASVGDRVTITCKSSQSLLASGNQNNHLAWYQQKPGKAPKMLIIWASTRVSGVPSRFSGSGSGTDFTLTISSLQPEDFATYYCQQSYSRPYTFGQGTKVEIKRTVAAPSVFIFPPSDEQLKSGTASVVCLLNNFYPREAKVQWKVDNALQSGNSQESVTEQDSKDSTYSLSSTLTLSKADYEKHKVYACEVTHQGLSSPVTKSFNRGEC
B3: MV10AY (bispecific antibody)
heavy: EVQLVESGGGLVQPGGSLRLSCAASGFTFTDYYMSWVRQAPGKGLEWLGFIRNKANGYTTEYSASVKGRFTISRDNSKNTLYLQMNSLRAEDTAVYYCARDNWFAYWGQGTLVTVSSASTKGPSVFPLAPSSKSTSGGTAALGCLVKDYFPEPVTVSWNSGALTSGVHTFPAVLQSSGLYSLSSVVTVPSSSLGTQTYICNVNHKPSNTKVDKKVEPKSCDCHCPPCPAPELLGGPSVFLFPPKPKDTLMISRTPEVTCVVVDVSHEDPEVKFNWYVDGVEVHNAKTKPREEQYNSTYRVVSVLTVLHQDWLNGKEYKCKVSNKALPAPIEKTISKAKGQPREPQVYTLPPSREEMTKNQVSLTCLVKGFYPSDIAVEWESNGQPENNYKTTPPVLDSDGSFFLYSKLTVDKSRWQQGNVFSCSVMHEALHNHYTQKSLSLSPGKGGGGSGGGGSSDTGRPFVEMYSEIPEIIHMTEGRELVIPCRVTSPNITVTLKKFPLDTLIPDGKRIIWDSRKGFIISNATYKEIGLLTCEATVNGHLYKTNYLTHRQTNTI
light: B2 light with H38Y
notes: also called bispecific antibody MV10AY; double-specific antibody MV10AY
B4: MV10AY U3 HC9/IgG2 (bispecific antibody)
heavy: EVQLVESGGGLVQPGGSLRLSCAASGFTFTDYYMSWVRQAPGKGLEWLGFIRNKANGYTTEYSASVKGRFTISRDNSKNTLYLQMNSLRAEDTAVYYCARDNWFAYWGQGTLVTVSSASTKGPSVFPLAPCSRSTSESTAALGCLVKDYFPEPVTVSWNSGALTSGVHTFPAVLQSSGLYSLSSVVTVPSSNFGTQTYTCNVDHKPSNTKVDKTVERKCCVECPPCPAPPVAGPSVFLFPPKPKDTLMISRTPEVTCVVVDVSHEDPEVQFNWYVDGVEVHNAKTKPREEQFNSTFRVVSVLTVVHQDWLNGKEYKCKVSNKGLPAPIEKTISKTKGQPREPQVYTLPPSREEMTKNQVSLTCLVKGFYPSDIAVEWESNGQPENNYKTTPPMLDSDGSFFLYSKLTVDKSRWQQGNVFSCSVMHEALHNHYTQKSLSLSPGKGGGGSGGGGSSDTGRPFVEMYSEIPEIIHMTEGRELVIPCRVTSPNITVTLKKFPLDTLIPDGKRIIWDSRKGFIISNATYKEIGLLTCEATVNGHLYKTNYLTHRQTNTI
light: B2 light with H38Y
B5: Ab2 (antibody, V domains shown)
VH: QVQLVQSGAEVKKPGASVKVSCKASGYIFTAYTMHWVRQAPGQGLDWMGGIKPNNGLANYAQKFQGRVTMTVDKSISTAYMELSRLRSDDTAVYYCARSEITTEFDYWGQGTLVTVSS
VL: DIVLTQSPDSLAVSLGERATINCRSSESVDSYANSFMHWYQQKPGQPPKLLIYRASTRESGVPDRFSGSGSRTDFTLTISSLQAEDVAVYYCQQSKEDPLTFGGGTKVEIKR
B6: huAbF46-H4-A1 (L3-1 origin) (antibody, V domains shown)
VH: EVQLVESGGGLVQPGGSLRLSCAASGFTFTDYYMSWVRQAPGKGLEWLGFIRNKANGYTTEYSASVKGRFTISRDNSKNTLYLQMNSLRAEDTAVYYCARDNWFAYWGQGTLVTVSS
VL: DIQMTQSPSSLSASVGDRVTITCKSSQSLLASGNQNNHLAWYQQKPGKAPKMLIIWASTRVSGVPSRFSGSGSGTDFTLTISSLQPEDFATYYCQQSYSRPYTFGQGTKVEIKR
B7: L3-1Y (antibody, V domains shown)
VH: B6 VH
VL: B6 VL with H38Y
notes: also called c-Met single-targeted antibody L3-1Y

Columns and labels:
[1] = molecular target: T1, human c-Met/Fc fusion protein (R&D Systems) (human, UniProt P08581 25-932); assay: ELISA, hybridoma culture on plate-coated human c-Met/Fc fusion protein
T1 construct: Immunogen and ELISA antigen; also called human c-Met/Fc protein; not shown: Fc part of the bought fusion protein; not described
T1 sequence (P08581 25-932 limits assumed): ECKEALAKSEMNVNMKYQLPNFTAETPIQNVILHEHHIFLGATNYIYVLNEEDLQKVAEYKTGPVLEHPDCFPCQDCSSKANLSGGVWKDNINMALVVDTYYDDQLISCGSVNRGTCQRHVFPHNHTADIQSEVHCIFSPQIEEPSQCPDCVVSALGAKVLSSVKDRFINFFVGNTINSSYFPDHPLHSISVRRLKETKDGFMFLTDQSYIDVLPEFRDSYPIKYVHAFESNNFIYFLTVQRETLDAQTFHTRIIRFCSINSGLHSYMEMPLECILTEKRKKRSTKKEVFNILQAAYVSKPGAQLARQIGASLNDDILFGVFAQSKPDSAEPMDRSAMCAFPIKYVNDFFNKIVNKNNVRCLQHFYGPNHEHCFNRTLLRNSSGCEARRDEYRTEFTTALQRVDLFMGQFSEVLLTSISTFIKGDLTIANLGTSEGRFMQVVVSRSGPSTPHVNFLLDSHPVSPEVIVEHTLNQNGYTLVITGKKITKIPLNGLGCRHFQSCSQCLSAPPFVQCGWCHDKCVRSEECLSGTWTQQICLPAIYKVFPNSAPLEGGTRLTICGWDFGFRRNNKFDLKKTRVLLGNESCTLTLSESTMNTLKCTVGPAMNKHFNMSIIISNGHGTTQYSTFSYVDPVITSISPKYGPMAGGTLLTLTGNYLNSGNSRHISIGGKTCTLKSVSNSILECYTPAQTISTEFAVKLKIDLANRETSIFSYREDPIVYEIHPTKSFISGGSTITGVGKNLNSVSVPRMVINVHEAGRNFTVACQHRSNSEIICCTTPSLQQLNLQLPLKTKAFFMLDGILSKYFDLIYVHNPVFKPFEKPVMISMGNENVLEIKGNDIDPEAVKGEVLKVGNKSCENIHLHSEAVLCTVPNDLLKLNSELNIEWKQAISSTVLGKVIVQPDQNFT

[2] = molecular target: c-Met on cells (MKN45, Caki-1, NCI-H441, HUVEC) (human, UniProt P08581 25-1390); assay: cell-based or functional assay
c-Met on cells (MKN45, Caki-1, NCI-H441, HUVEC), sequence (P08581 25-1390): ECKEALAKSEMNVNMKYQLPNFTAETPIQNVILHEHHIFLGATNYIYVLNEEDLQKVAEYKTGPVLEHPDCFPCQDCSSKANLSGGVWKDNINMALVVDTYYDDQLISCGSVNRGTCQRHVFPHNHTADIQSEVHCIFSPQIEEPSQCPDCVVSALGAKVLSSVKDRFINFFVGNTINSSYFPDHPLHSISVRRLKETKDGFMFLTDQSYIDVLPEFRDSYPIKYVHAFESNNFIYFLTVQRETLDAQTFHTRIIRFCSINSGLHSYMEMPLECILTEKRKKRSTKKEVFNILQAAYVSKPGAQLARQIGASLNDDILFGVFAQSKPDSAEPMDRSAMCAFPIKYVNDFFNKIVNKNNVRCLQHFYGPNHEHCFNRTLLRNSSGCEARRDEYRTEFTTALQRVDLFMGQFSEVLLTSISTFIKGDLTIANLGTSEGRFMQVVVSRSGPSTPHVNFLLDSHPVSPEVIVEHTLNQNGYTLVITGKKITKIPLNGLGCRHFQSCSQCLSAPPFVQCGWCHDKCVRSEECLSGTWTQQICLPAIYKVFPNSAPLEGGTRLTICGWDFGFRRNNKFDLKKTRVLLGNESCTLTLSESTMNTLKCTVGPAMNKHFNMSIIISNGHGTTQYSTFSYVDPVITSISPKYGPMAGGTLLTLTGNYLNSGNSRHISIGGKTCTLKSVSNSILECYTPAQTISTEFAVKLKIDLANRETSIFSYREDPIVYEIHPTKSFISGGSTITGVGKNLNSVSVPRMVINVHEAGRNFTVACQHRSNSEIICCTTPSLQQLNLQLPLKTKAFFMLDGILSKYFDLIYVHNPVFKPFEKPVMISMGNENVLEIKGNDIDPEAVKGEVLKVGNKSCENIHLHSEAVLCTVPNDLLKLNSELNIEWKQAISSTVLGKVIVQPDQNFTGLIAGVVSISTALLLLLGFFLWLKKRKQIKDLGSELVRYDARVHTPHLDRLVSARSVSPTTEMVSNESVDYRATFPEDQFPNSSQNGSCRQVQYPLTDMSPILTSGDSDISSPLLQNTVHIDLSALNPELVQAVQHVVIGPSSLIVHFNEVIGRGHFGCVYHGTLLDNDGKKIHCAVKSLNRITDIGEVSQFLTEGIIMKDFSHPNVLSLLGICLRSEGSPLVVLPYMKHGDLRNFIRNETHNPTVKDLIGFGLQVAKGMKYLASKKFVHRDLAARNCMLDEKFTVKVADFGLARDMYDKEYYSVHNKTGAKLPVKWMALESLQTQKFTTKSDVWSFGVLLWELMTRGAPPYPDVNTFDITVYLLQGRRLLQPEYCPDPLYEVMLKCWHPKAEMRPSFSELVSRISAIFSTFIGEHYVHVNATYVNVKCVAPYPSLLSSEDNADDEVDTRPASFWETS

[3] = molecular target: hVEGF (GE Healthcare, 28-9583-25) (human, UniProt P15692-4 27-191); assay: SPR, Biacore T100; hVEGF immobilized on CM5 chip, MV10AY at 6 concentrations
hVEGF (GE Healthcare, 28-9583-25), sequence (P15692 other isoform, or with tags, fused parts or gaps limits assumed): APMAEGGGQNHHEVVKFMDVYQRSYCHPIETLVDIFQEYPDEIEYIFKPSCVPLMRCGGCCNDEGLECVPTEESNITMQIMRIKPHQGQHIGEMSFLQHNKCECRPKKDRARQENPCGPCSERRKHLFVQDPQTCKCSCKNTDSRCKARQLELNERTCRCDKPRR
Experimental: The binding kinetics of the double-specific antibodies having VEGF as a target were measured by an SPR method using Biacore T100 instrument (GE Healthcare). hVEGF (GE Healthcare, 28-9583-25) was immobilized on the surface of a CM5 chip according to the manufacturer's manual. […] The obtained surface was regenerated by injecting 1M NaCl+30 mM NaOH at a fluid rate of 30 μl/min for 60 sec. In order to determine binding kinetics, the data obtained from the above experiment was fitted using BIAevaluation software (GE Healthcare) (K_{D=}=0.45 nM).

[4] = molecular target: T2, c-Met (R&D Systems, Cat. No. 358-MT/CF) (UniProt P08581 25-932); assay: SPR, Biacore T100; antibody captured by human Fab binder on CM5 chip, c-Met injected
T2 construct: Bought protein used as analyte in SPR
T2 sequence (P08581 25-932 limits assumed): as the sequence (P08581 25-932 limits assumed) above
Experimental: The binding kinetics of the double-targeted fusion proteins manufactured in the above were analyzed using Biacore T100 instrument (GE Healthcare). A human Fab binding agent (GE Healthcare) was immobilized on the surface of a CM5 chip (GE Healthcare, Cat. No. BR-1005-30) according to the manufacturer's manual. […] Then, 10 mM Glycine-HCl (pH 1.5) solution was added thereto, whereby the surface was regenerated. In order to measure the binding kinetics, the data obtained from the above experiment was fitted using BIAevaluation software (GE Healthcare, Biacore T100 evaluation software).

Binder	AKT phosphorylation inhibitory ability (phospho-AKT Ser473 ELISA, Caki-1 cells, compared to 5D5 control group) [2]	c-Met degradation ability (total c-Met ELISA, MKN45 cells, 5 ug/ml antibody, 24 h) [2]	Kd [4]	koff [4]	kon [4]	other results
B1	–	–	–	–	–	binding result [1]: binds
B2	79%	76%	–	–	–	–
B3	74%	72%	< 0.01 nM	< 1.4e-05 s⁻¹	680000 M⁻¹ s⁻¹	Kd [3]: 0.45 nM; koff [3]: 0.0011 s⁻¹; kon [3]: 2.4e+06 M⁻¹ s⁻¹
B4	–	–	< 0.01 nM	< 6.9e-05 s⁻¹	720000 M⁻¹ s⁻¹	–
B5	–	–	–	–	–	c-Met degradation ability (total c-Met ELISA, method of Example 2.2) [2]: 70.4%
B6	69%	68%	–	–	–	–
B7	63%	66%	< 0.01 nM	< 1.2e-05 s⁻¹	770000 M⁻¹ s⁻¹	–
